Assay results as given in patent publication US8476054B2, “Thrombin-like enzyme of Agkistrodon acutus” (Konruns Pharmaceutical Co., Ltd., priority 2008, dated 2013).
“Also recorded” adds a separate entry of the source.

B1: hemocoagulase (protein)
chain 1: DCSSGWSSYEGHCYKVFKQSKTWADAESFCTKQVNGGHLVSLESSGEADFVGQLLAQKLKSAKLHVWLGLRAQNKEKQCSLQWSDGSSLSYENWLEEESKKCLGVHLETGFHKWENFYCEQQDPFVCEA
chain 2: DCPSDWSSYEGHCYKPFNEPKNWADAENFCTKQHTGGHLVSFQSTEEADFVVKLAFQTFDYGLFWFGLSKLWNQCNWQWSNAAMLKYTDWAEESYCVYFKSTNNKWRSLTCRMLANFVCEFQA

Key:
[1] = system: hemocoagulase of Agkistrodon acutus; experiment: effect of PMSF on the agglutination time of the hemocoagulase; type: biochemical
Method: (§1) 1% bovine fibrinogen (Sigma Company) solution was prepared with physiological saline.
(§2) The operational steps of the experiment were as follows:
(§3) (1) 2 ml 1% bovine fibrinogen solution was kept at constant temperature of 37° C. for 5 min;
(§4) (2) 3 tubes were respectively marked with 1 #, 2 #, 3 #, then 200 μl hemocoagulase solution (5 u/ml) diluted one time with distilled water was added into each of 3 tubes;
(§5) (3) 10 μl distilled water was added into tube 1#, 10 μl isopropanol was added into tube 2#, and 10 μl PMSF was added into tube 3#, and the tubes were kept at constant temperature of 37° C. in water bath for 5 min;
(§6) (4) Observations of the agglutination experiments were carried out separately in the order of the numbering of the above tubes. 200 μl 1% bovine fibrinogen solution at constant temperature was added into each of the tubes respectively, followed by counting time immediately and shaking the tube gently; then the tube was kept to stand in water bath of 37° C. The agglutination reaction was observed. When the solution was completely coagulated, time-counting was finished.

[2] = system: bovine fibrinogen; experiment: enzymatic activity assay (bovine fibrinogen assay or normal human plasma assay); type: biochemical; settings: hemocoagulase of Example 2 further purified by HPLC
Method: The above dialyzed enzyme solution was loaded on a pre-equilibrated DEAE-Sepharose Fast Flow anion exchange chromatography column, and the column was eluted with 0.01M, pH7.4 PBS. Then, the stepwise elution was conducted with 0.01M, pH7.4 PBS containing 0.02M, 0.04M, 0.06M, 1.0M NaCl respectively, and the second eluting peak of 0.06M NaC1 eluent was collected to obtain 1,050 ml of eluent. […] The 1,050 ml eluent was ultra-filtrated to 135 ml by Millipore Pellicon 2 tangential flow ultra-filter (0.1M^2 cut off 5 k membrane). The 135 ml ultra-filtrated solution was poured into a dialysis bag and dialyzed against deionized water for 24 hours, and the deionized water was changed 3 times during the dialysis. After dialysis, the volume of the enzyme solution is 159 ml, and the determined content of the total protein in the solution is 240 mg, the determined specific activity of the enzyme is 195 u/mg protein and a final yield of 0.8%. […]
1 ml 1.0% bovine fibrinogen (Sigma company) prepared with physiological saline was added to a tube, kept at 37±0.5° C. in water bath for 3 min, followed by adding 1 ml 37±0.5° C. preheated enzymatic solution to be determined was added into the tube while counting time immediately; if white flocs appeared in the bovine fibrinogen solution by shaking it within 120±30 seconds, the activity unit of the enzymatic solution is determined to be 1 u/ml. […]

[3] = system: bovine fibrinogen; experiment: agglutination experiment, time to complete coagulation of bovine fibrinogen solution; type: biochemical; settings: 200 μl hemocoagulase solution (5 u/ml), 200 μl 1% bovine fibrinogen, 37° C.
Method: as §1, §2, §3, §4, §5, §6

[4] = system: human fibrinogen; experiment: hydrolyzing human fibrinogen with the hemocoagulase, SDS-PAGE; type: biochemical; settings: for band of alpha subunit of human fibrinogen: hemocoagulase 1 unit, 37° C.
Method: A 4 mg/ml human fibrinogen solution was prepared with 50 mM Tris-HCl buffer solution(pH 7.4). 0.5 ml human fibrinogen solution were respectively added into each of 5 tubes; 1 activity unit of the purified hemocoagulase was separately added into each of 4 tubes according to 4 different time intervals of heat preservation time for hydrolyzing, and the tubes were kept at 37° C. in water bath for 4 h, 2 h, 1 h and 0.5 h, respectively; after that, SDS-PAGE was carried out immediately to observe the hydrolyzing degree of the human fibrinogen. Meanwhile, another tube containing 0.5 ml of the human fibrinogen solution was kept at 37° C. in water bath for 4 h as a control.

[5] = isoelectric focusing electrophoresis analysis; type: physicochemical
Method: The above dialyzed enzyme solution was loaded on a pre-equilibrated DEAE-Sepharose Fast Flow anion exchange chromatography column, and the column was eluted with 0.01M, pH7.4 PBS. Then, the stepwise elution was conducted with 0.01M, pH7.4 PBS containing 0.02M, 0.04M, 0.06M, 1.0M NaCl respectively, and the second eluting peak of 0.06M NaC1 eluent was collected to obtain 1,050 ml of eluent. […] The 1,050 ml eluent was ultra-filtrated to 135 ml by Millipore Pellicon 2 tangential flow ultra-filter (0.1M^2 cut off 5 k membrane). The 135 ml ultra-filtrated solution was poured into a dialysis bag and dialyzed against deionized water for 24 hours, and the deionized water was changed 3 times during the dialysis. After dialysis, the volume of the enzyme solution is 159 ml, and the determined content of the total protein in the solution is 240 mg, the determined specific activity of the enzyme is 195 u/mg protein and a final yield of 0.8%. The protein has a HPLC purity of 98.2%, and two protein bands were shown by reduced SDS-PAGE with the molecular weight of about 15 kDa and 14.5 kDa, respectively. The enzyme has an isoelectric point(pI) of 5.5 by isoelectric focusing electrophoresis analysis.

Molecule	Agglutination time ([1]; 10 μl PMSF (4 mg/ml in isopropanol), 200 μl hemocoagulase solution (5 u/ml), 200 μl 1% bovine fibrinogen, 37° C.)	inhibition of the activity of the hemocoagulase ([1]; 100 ppm PMSF)	enzyme activity of the solution [2]	Agglutination time ([3]; 10 μl distilled water)	Agglutination time ([3]; 10 μl isopropanol)	hydrolysis of the alpha chain (alpha subunit) of human fibrinogen [4]	band of alpha subunit of human fibrinogen ([4]; treated for 0.5 h and 1 h)	band of alpha subunit of human fibrinogen ([4]; treated for 2 h and 4 h)	isoelectric point (pI) [5]
O=S(=O)(F)Cc1ccccc1 [PMSF, Phenylmethanesulfonyl fluoride]	> 600 s	completely inhibits							
B1			10 u/ml	50 s	50 s	able to hydrolyze the alpha chain of human fibrinogen; also recorded: has the function of hydrolyzing the alpha subunit of the human fibrinogen	became gradually light	disappeared completely	5.5
